{"source": "the supplement of paper PMC9112550", "about": "“Optimization of the antimicrobial peptide Bac7 by deep mutational scanning” (BMC Biology, 2022);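 also: peptides expressed intracellularly from a pBAD plasmid library in pooled LB shake-flask culture, induced with 0.3% L-arabinose, DNA abundance read by NGS, three biological replicates, DESeq2 with apeglm shrinkage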", "data": [{"tested_on": "Escherichia coli TOP10", "assay": "shrunken log2 fold change of peptide-encoding DNA abundance (4.5 h post-induction vs induction); higher = less antimicrobial activity (less host growth inhibition)", "details": "time post-induction: 4.5 h; library: site-saturation at positions 5, 18, 19, 20", "values": [{"sequence": "RRIRMRPPRLPRPRPRPVWTPRP", "shrunken log2 fold change": 0.386}, {"sequence": "RRIRIRPPRLPRPRPRPRAIPRP", "shrunken log2 fold change": -0.356}, {"sequence": "RRIRSRPPRLPRPRPRPHDHPRP", "shrunken log2 fold change": -0.23}, {"sequence": "RRIRLRPPRLPRPRPRPTVTPRP", "shrunken log2 fold change": -0.0848}, {"sequence": "RRIRNRPPRLPRPRPRPQSIPRP", "shrunken log2 fold change": -0.0502}, {"sequence": "RRIRDRPPRLPRPRPRPRYGPRP", "shrunken log2 fold change": -0.0472}, {"sequence": "RRIRMRPPRLPRPRPRPSFKPRP", "shrunken log2 fold change": -0.0765}, {"sequence": "RRIRDRPPRLPRPRPRPMNIPRP", "shrunken log2 fold change": -0.0931}, {"sequence": "RRIRDRPPRLPRPRPRPELGPRP", "shrunken log2 fold change": 1.53}, {"sequence": "RRIRDRPPRLPRPRPRPMYMPRP", "shrunken log2 fold change": -0.00623}, {"sequence": "RRIRKRPPRLPRPRPRPLVGPRP", "shrunken log2 fold change": 0.0773}, {"sequence": "RRIRERPPRLPRPRPRPFQTPRP", "shrunken log2 fold change": 0.11}, {"sequence": "RRIRPRPPRLPRPRPRPAYCPRP", "shrunken log2 fold change": -0.215}, {"sequence": "RRIRPRPPRLPRPRPRPCMYPRP", "shrunken log2 fold change": -0.226}, {"sequence": "RRIRTRPPRLPRPRPRPQRRPRP", "shrunken log2 fold change": -0.0307}, {"sequence": "RRIRKRPPRLPRPRPRPHRDPRP", "shrunken log2 fold change": -0.136}, {"sequence": "RRIRNRPPRLPRPRPRPQELPRP", "shrunken log2 fold change": -0.14}, {"sequence": "RRIRHRPPRLPRPRPRPFNLPRP", "shrunken log2 fold change": -0.189}, {"sequence": "RRIRARPPRLPRPRPRPSRTPRP", "shrunken log2 fold change": 0.471}, {"sequence": "RRIRERPPRLPRPRPRPTAMPRP", "shrunken log2 fold change": 0.109}, {"sequence": "RRIRERPPRLPRPRPRPDTSPRP", "shrunken log2 fold change": -0.417}, {"sequence": "RRIRQRPPRLPRPRPRPAYFPRP", "shrunken log2 fold change": 0.191}, {"sequence": "RRIRPRPPRLPRPRPRPLSLPRP", "shrunken log2 fold change": 0.0584}, {"sequence": "RRIRTRPPRLPRPRPRPMWIPRP", "shrunken log2 fold change": -0.222}, {"sequence": "RRIRVRPPRLPRPRPRPPPFPRP", "shrunken log2 fold change": 0.375}, {"sequence": "RRIRKRPPRLPRPRPRPSYEPRP", "shrunken log2 fold change": -0.304}, {"sequence": "RRIRYRPPRLPRPRPRPMPFPRP", "shrunken log2 fold change": 0.00489}, {"sequence": "RRIRTRPPRLPRPRPRPKRIPRP", "shrunken log2 fold change": 0.0762}, {"sequence": "RRIRTRPPRLPRPRPRPSCNPRP", "shrunken log2 fold change": -0.768}, {"sequence": "RRIRIRPPRLPRPRPRPVPDPRP", "shrunken log2 fold change": -0.0498}, {"sequence": "RRIRNRPPRLPRPRPRPTLLPRP", "shrunken log2 fold change": -0.168}, {"sequence": "RRIRVRPPRLPRPRPRPHDYPRP", "shrunken log2 fold change": -0.264}, {"sequence": "RRIRLRPPRLPRPRPRPPWMPRP", "shrunken log2 fold change": 0.167}, {"sequence": "RRIRWRPPRLPRPRPRPQANPRP", "shrunken log2 fold change": 0.395}, {"sequence": "RRIRLRPPRLPRPRPRPDSQPRP", "shrunken log2 fold change": -0.117}, {"sequence": "RRIRSRPPRLPRPRPRPTWIPRP", "shrunken log2 fold change": -0.38}, {"sequence": "RRIRIRPPRLPRPRPRPCLYPRP", "shrunken log2 fold change": -0.248}, {"sequence": "RRIRSRPPRLPRPRPRPANDPRP", "shrunken log2 fold change": 0.0254}, {"sequence": "RRIRERPPRLPRPRPRPDMEPRP", "shrunken log2 fold change": -0.201}, {"sequence": "RRIRWRPPRLPRPRPRPEPCPRP", "shrunken log2 fold change": 0.157}, {"sequence": "RRIRMRPPRLPRPRPRPSDNPRP", "shrunken log2 fold change": 0.0409}, {"sequence": "RRIRGRPPRLPRPRPRPMYNPRP", "shrunken log2 fold change": -0.104}, {"sequence": "RRIRKRPPRLPRPRPRPHREPRP", "shrunken log2 fold change": -0.0175}, {"sequence": "RRIRFRPPRLPRPRPRPCNEPRP", "shrunken log2 fold change": -0.0116}, {"sequence": "RRIRPRPPRLPRPRPRPSIQPRP", "shrunken log2 fold change": -0.696}, {"sequence": "RRIRYRPPRLPRPRPRPQTHPRP", "shrunken log2 fold change": -1.08}, {"sequence": "RRIRERPPRLPRPRPRPRFWPRP", "shrunken log2 fold change": 0.549}, {"sequence": "RRIRCRPPRLPRPRPRPMRMPRP", "shrunken log2 fold change": 0.22}, {"sequence": "RRIRFRPPRLPRPRPRPTREPRP", "shrunken log2 fold change": 0.599}, {"sequence": "RRIRTRPPRLPRPRPRPCITPRP", "shrunken log2 fold change": -0.96}, {"sequence": "RRIRFRPPRLPRPRPRPQPFPRP", "shrunken log2 fold change": -0.0783}, {"sequence": "RRIRDRPPRLPRPRPRPMHRPRP", "shrunken log2 fold change": -0.0439}, {"sequence": "RRIRMRPPRLPRPRPRPTQHPRP", "shrunken log2 fold change": 0.717}, {"sequence": "RRIRHRPPRLPRPRPRPVLIPRP", "shrunken log2 fold change": -0.113}, {"sequence": "RRIRGRPPRLPRPRPRPGDHPRP", "shrunken log2 fold change": 0.333}, {"sequence": "RRIRRRPPRLPRPRPRPPYMPRP", "shrunken log2 fold change": 0.315}, {"sequence": "RRIRFRPPRLPRPRPRPDGVPRP", "shrunken log2 fold change": -0.14}, {"sequence": "RRIRVRPPRLPRPRPRPYGNPRP", "shrunken log2 fold change": -0.0775}, {"sequence": "RRIRGRPPRLPRPRPRPNYIPRP", "shrunken log2 fold change": -0.099}, {"sequence": "RRIRPRPPRLPRPRPRPWYFPRP", "shrunken log2 fold change": -1.02}, {"sequence": "RRIRERPPRLPRPRPRPVPSPRP", "shrunken log2 fold change": -0.0655}, {"sequence": "RRIRQRPPRLPRPRPRPLQPPRP", "shrunken log2 fold change": -0.0373}, {"sequence": "RRIRVRPPRLPRPRPRPEVVPRP", "shrunken log2 fold change": -0.0305}, {"sequence": "RRIRARPPRLPRPRPRPHAWPRP", "shrunken log2 fold change": 0.375}, {"sequence": "RRIRTRPPRLPRPRPRPLCQPRP", "shrunken log2 fold change": -0.0705}, {"sequence": "RRIRPRPPRLPRPRPRPKYSPRP", "shrunken log2 fold change": -0.55}, {"sequence": "RRIRDRPPRLPRPRPRPRRDPRP", "shrunken log2 fold change": 0.492}, {"sequence": "RRIRCRPPRLPRPRPRPHCNPRP", "shrunken log2 fold change": -0.395}, {"sequence": "RRIRHRPPRLPRPRPRPFKMPRP", "shrunken log2 fold change": -0.274}, {"sequence": "RRIRLRPPRLPRPRPRPPPKPRP", "shrunken log2 fold change": 1.8}, {"sequence": "RRIRTRPPRLPRPRPRPCDKPRP", "shrunken log2 fold change": -0.138}, {"sequence": "RRIRWRPPRLPRPRPRPQRPPRP", "shrunken log2 fold change": -0.00892}, {"sequence": "RRIRIRPPRLPRPRPRPMAIPRP", "shrunken log2 fold change": -0.274}, {"sequence": "RRIRCRPPRLPRPRPRPFTSPRP", "shrunken log2 fold change": -0.152}, {"sequence": "RRIRCRPPRLPRPRPRPIVLPRP", "shrunken log2 fold change": -0.456}]}]}
